According to patent US20220249561A1 (SHINSHU UNIVERSITY, published 2022):

Tests used:
[1] = biological target: T1, ALK 001P; assay: SPR, Biacore 8K; ALK 001P captured on Protein A chip, ligand as analyte, 6 concentrations from 20 nM
T1 construct: ALK (1-19) is described only as a region comprising a secretory signal, and no cleavage site is stated; Expressed in Expi293 cells and captured on a Protein A chip through its Fc

[2] = biological target: T2, LTK 001P; assay: SPR, Biacore 8K; LTK 001P captured on Protein A chip, ligand as analyte, 6 concentrations from 20 nM
T2 construct: Expressed in Expi293 cells and captured on a Protein A chip through its Fc

[3] = biological target: T1, ALK 001P; assay: SPR, Biacore 8K; receptor-Fc captured on Protein A chip, ligand as analyte
Protocol: (§1) Whether or not ALK 001P and LTK 001P obtained in Example 5 had bound to Ligand 001P and Ligand 002P was examined using Biacore 8K instrument (GE Healthcare Japan) by the surface plasmon resonance (SPR) technique.
(§2) ALK 001P and LTK 001P were dissociated (i.e., regenerated) from Protein A coating the sensor chip surface (i.e., regeneration) by injecting 10 mM Glycine-HCl (pH 1.6) at a flow rate of 30 μl/min for 30 seconds. The bond dissociation curve modified by subtracting the baseline value was prepared using Biacore8K Evaluation Software (GE Healthcare Japan).

[4] = biological target: T2, LTK 001P; assay: as above
Protocol: as §1, §2

B1: Ligand 019P (ligand)
chain: DGHHHHHHGSLQDSEVNQEAKPEVKPEVKPETHINLKVSDGSSEIFFKIKKTTPLRRLMEAFAKRQGKEMDSLTFLYDGIEIQADQTPEDLDMEDNDIIEAHREQIGGLEVLFQGPFLKHLTGPLYFSPKCSKHFHRLYHNTRDCTIPAYYKRCARLLTRLAVSPVCMEDKQ
binding result [1]: binds | binding result [2]: binds

B2: Ligand 001P (ligand)
chain: DGHHHHHHGSLQDSEVNQEAKPEVKPEVKPETHINLKVSDGSSEIFFKIKKTTPLRRLMEAFAKRQGKEMDSLTFLYDGIEIQADQTPEDLDMEDNDIIEAHREQIGGLEVLFQGPAAGAGRTPSGSRSAEIFPRDSNLKDKFIKHFTGPVTFSPECSKHFHRLYYNTRECSTPAYYKRCARLLTRLAVSPLCSQT
binding result [3]: binds | binding result [4]: binds

B3: Ligand 020P (ligand)
chain: DGHHHHHHGSLQDSEVNQEAKPEVKPEVKPETHINLKVSDGSSEIFFKIKKTTPLRRLMEAFAKRQGKEMDSLTFLYDGIEIQADQTPEDLDMEDNDIIEAHREQIGGLEVLFQGPKHLTGPLYFSPKCSKHFHRLYHNTRDCTIPAYYKRCARLLTRLAVSPVCMEDKQ
binding result [1]: binds | binding result [2]: binds

B4: Ligand 018P (ligand)
chain: DGHHHHHHGSLQDSEVNQEAKPEVKPEVKPETHINLKVSDGSSEIFFKIKKTTPLRRLMEAFAKRQGKEMDSLTFLYDGIEIQADQTPEDLDMEDNDIIEAHREQIGGLEVLFQGPDKFLKHLTGPLYFSPKCSKHFHRLYHNTRDCTIPAYYKRCARLLTRLAVSPVCMEDKQ
notes: also called Ligand 18P
binding result [1]: binds | binding result [2]: binds

B5: Ligand 022P (ligand)
chain: DGHHHHHHGSLQDSEVNQEAKPEVKPEVKPETHINLKVSDGSSEIFFKIKKTTPLRRLMEAFAKRQGKEMDSLTFLYDGIEIQADQTPEDLDMEDNDIIEAHREQIGGLEVLFQGPGPLYFSPKCSKHFHRLYHNTRDCTIPAYYKRCARLLTRLAVSPVCMEDKQ
binding result [1]: binds | binding result [2]: binds

B6: Ligand 021P (ligand)
chain: DGHHHHHHGSLQDSEVNQEAKPEVKPEVKPETHINLKVSDGSSEIFFKIKKTTPLRRLMEAFAKRQGKEMDSLTFLYDGIEIQADQTPEDLDMEDNDIIEAHREQIGGLEVLFQGPLTGPLYFSPKCSKHFHRLYHNTRDCTIPAYYKRCARLLTRLAVSPVCMEDKQ
binding result [1]: binds | binding result [2]: binds
